Test results published in patent publication US20090317363A1.

B1: RANTES derivative: signature sequence SEQ ID NO: 4 fused to positions 10-68 of native RANTES (SEQ ID NO: 1) (ligand)
chain: QGPPLMWLQVCCFAYIARPLPRAHIKEYFYTSGKCSNPAVVFVTRKNRQVCANPEKKWVREYINSLEMS
B2: RANTES derivative: signature sequence SEQ ID NO: 6 fused to positions 10-68 of native RANTES (SEQ ID NO: 1) (ligand)
chain: QGPPLMWLQTCCFAYIARPLPRAHIKEYFYTSGKCSNPAVVFVTRKNRQVCANPEKKWVREYINSLEMS
B3: RANTES derivative: signature sequence SEQ ID NO: 30 fused to positions 10-68 of native RANTES (SEQ ID NO: 1) (ligand)
chain: QGPPLSWLQVCCFAYIARPLPRAHIKEYFYTSGKCSNPAVVFVTRKNRQVCANPEKKWVREYINSLEMS
B4: RANTES derivative: signature sequence SEQ ID NO: 31 fused to positions 10-68 of native RANTES (SEQ ID NO: 1) (ligand)
chain: QGPPLSWLQSCCFAYIARPLPRAHIKEYFYTSGKCSNPAVVFVTRKNRQVCANPEKKWVREYINSLEMS
B5: RANTES derivative: signature sequence SEQ ID NO: 33 fused to positions 10-68 of native RANTES (SEQ ID NO: 1) (ligand)
chain: QGPPMMAGLSCCFAYIARPLPRAHIKEYFYTSGKCSNPAVVFVTRKNRQVCANPEKKWVREYINSLEMS
B6: RANTES derivative: signature sequence SEQ ID NO: 39 fused to positions 10-68 of native RANTES (SEQ ID NO: 1) (ligand)
chain: QGPPLSWSQVCCFAYIARPLPRAHIKEYFYTSGKCSNPAVVFVTRKNRQVCANPEKKWVREYINSLEMS
B7: RANTES derivative: signature sequence SEQ ID NO: 46 fused to positions 10-68 of native RANTES (SEQ ID NO: 1) (ligand)
chain: QGPLSGWAQVCCFAYIARPLPRAHIKEYFYTSGKCSNPAVVFVTRKNRQVCANPEKKWVREYINSLEMS
B8: RANTES derivative: signature sequence SEQ ID NO: 38 fused to positions 10-68 of native RANTES (SEQ ID NO: 1) (ligand)
chain: QGPPLMQLQVCCFAYIARPLPRAHIKEYFYTSGKCSNPAVVFVTRKNRQVCANPEKKWVREYINSLEMS
B9: RANTES derivative: signature sequence SEQ ID NO: 47 fused to positions 10-68 of native RANTES (SEQ ID NO: 1) (ligand)
chain: QGPLSQSSQVCCFAYIARPLPRAHIKEYFYTSGKCSNPAVVFVTRKNRQVCANPEKKWVREYINSLEMS
B10: RANTES derivative: signature sequence SEQ ID NO: 35 fused to positions 10-68 of native RANTES (SEQ ID NO: 1) (ligand)
chain: QGPPGMWSQSCCFAYIARPLPRAHIKEYFYTSGKCSNPAVVFVTRKNRQVCANPEKKWVREYINSLEMS
B11: RANTES derivative: signature sequence SEQ ID NO: 50 fused to positions 10-68 of native RANTES (SEQ ID NO: 1) (ligand)
chain: QGPPLQWFQVCCFAYIARPLPRAHIKEYFYTSGKCSNPAVVFVTRKNRQVCANPEKKWVREYINSLEMS
B12: RANTES derivative: signature sequence SEQ ID NO: 40 fused to positions 10-68 of native RANTES (SEQ ID NO: 1) (ligand)
chain: QGPPMSWSQSCCFAYIARPLPRAHIKEYFYTSGKCSNPAVVFVTRKNRQVCANPEKKWVREYINSLEMS
B13: RANTES derivative: signature sequence SEQ ID NO: 49 fused to positions 10-68 of native RANTES (SEQ ID NO: 1) (ligand)
chain: QGPLGQQGQVCCFAYIARPLPRAHIKEYFYTSGKCSNPAVVFVTRKNRQVCANPEKKWVREYINSLEMS
B14: RANTES derivative: signature sequence SEQ ID NO: 44 fused to positions 10-68 of native RANTES (SEQ ID NO: 1) (ligand)
chain: QGPPLMSLAVCCFAYIARPLPRAHIKEYFYTSGKCSNPAVVFVTRKNRQVCANPEKKWVREYINSLEMS
B15: RANTES derivative: signature sequence SEQ ID NO: 53 fused to positions 10-68 of native RANTES (SEQ ID NO: 1) (ligand)
chain: QGPPLMWSQVCCFAYIARPLPRAHIKEYFYTSGKCSNPAVVFVTRKNRQVCANPEKKWVREYINSLEMS
B16: RANTES derivative: signature sequence SEQ ID NO: 42 fused to positions 10-68 of native RANTES (SEQ ID NO: 1) (ligand)
chain: QGPPMSAYQVCCFAYIARPLPRAHIKEYFYTSGKCSNPAVVFVTRKNRQVCANPEKKWVREYINSLEMS
B17: RANTES derivative: signature sequence SEQ ID NO: 56 fused to positions 10-68 of native RANTES (SEQ ID NO: 1) (ligand)
chain: QGPPLMSSQSCCFAYIARPLPRAHIKEYFYTSGKCSNPAVVFVTRKNRQVCANPEKKWVREYINSLEMS
B18: RANTES derivative: signature sequence SEQ ID NO: 55 fused to positions 10-68 of native RANTES (SEQ ID NO: 1) (ligand)
chain: QGPPGSWSQVCCFAYIARPLPRAHIKEYFYTSGKCSNPAVVFVTRKNRQVCANPEKKWVREYINSLEMS
B19: RANTES derivative: signature sequence SEQ ID NO: 36 fused to positions 10-68 of native RANTES (SEQ ID NO: 1) (ligand)
chain: QGPPLQWRQSCCFAYIARPLPRAHIKEYFYTSGKCSNPAVVFVTRKNRQVCANPEKKWVREYINSLEMS
B20: RANTES derivative: signature sequence SEQ ID NO: 54 fused to positions 10-68 of native RANTES (SEQ ID NO: 1) (ligand)
chain: QGPPGQWGQVCCFAYIARPLPRAHIKEYFYTSGKCSNPAVVFVTRKNRQVCANPEKKWVREYINSLEMS
B21: RANTES derivative: signature sequence SEQ ID NO: 37 fused to positions 10-68 of native RANTES (SEQ ID NO: 1) (ligand)
chain: QGPPLMGTQSCCFAYIARPLPRAHIKEYFYTSGKCSNPAVVFVTRKNRQVCANPEKKWVREYINSLEMS
B22: RANTES derivative: signature sequence SEQ ID NO: 51 fused to positions 10-68 of native RANTES (SEQ ID NO: 1) (ligand)
chain: QGPPLQWTQVCCFAYIARPLPRAHIKEYFYTSGKCSNPAVVFVTRKNRQVCANPEKKWVREYINSLEMS
B23: RANTES derivative: signature sequence SEQ ID NO: 45 fused to positions 10-68 of native RANTES (SEQ ID NO: 1) (ligand)
chain: QGPPLMSLTVCCFAYIARPLPRAHIKEYFYTSGKCSNPAVVFVTRKNRQVCANPEKKWVREYINSLEMS
B24: RANTES derivative: signature sequence SEQ ID NO: 41 fused to positions 10-68 of native RANTES (SEQ ID NO: 1) (ligand)
chain: QGPPLMNLQVCCFAYIARPLPRAHIKEYFYTSGKCSNPAVVFVTRKNRQVCANPEKKWVREYINSLEMS
B25: RANTES derivative: signature sequence SEQ ID NO: 57 fused to positions 10-68 of native RANTES (SEQ ID NO: 1) (ligand)
chain: QGPPLMGLSVCCFAYIARPLPRAHIKEYFYTSGKCSNPAVVFVTRKNRQVCANPEKKWVREYINSLEMS
B26: RANTES derivative: signature sequence SEQ ID NO: 34 fused to positions 10-68 of native RANTES (SEQ ID NO: 1) (ligand)
chain: QGPPLSWQQSCCFAYIARPLPRAHIKEYFYTSGKCSNPAVVFVTRKNRQVCANPEKKWVREYINSLEMS
B27: RANTES derivative: signature sequence SEQ ID NO: 32 fused to positions 10-68 of native RANTES (SEQ ID NO: 1) (ligand)
chain: QGPPGQWSQVCCFAYIARPLPRAHIKEYFYTSGKCSNPAVVFVTRKNRQVCANPEKKWVREYINSLEMS
B28: RANTES derivative: signature sequence SEQ ID NO: 52 fused to positions 10-68 of native RANTES (SEQ ID NO: 1) (ligand)
chain: QGPPLMALSVCCFAYIARPLPRAHIKEYFYTSGKCSNPAVVFVTRKNRQVCANPEKKWVREYINSLEMS
B29: RANTES derivative: signature sequence SEQ ID NO: 43 fused to positions 10-68 of native RANTES (SEQ ID NO: 1) (ligand)
chain: QGPPMQGGLSCCFAYIARPLPRAHIKEYFYTSGKCSNPAVVFVTRKNRQVCANPEKKWVREYINSLEMS
B30: RANTES derivative: signature sequence SEQ ID NO: 5 fused to positions 10-68 of native RANTES (SEQ ID NO: 1) (ligand)
chain: QGPPLMWTQSCCFAYIARPLPRAHIKEYFYTSGKCSNPAVVFVTRKNRQVCANPEKKWVREYINSLEMS
B31: RANTES derivative: signature sequence SEQ ID NO: 48 fused to positions 10-68 of native RANTES (SEQ ID NO: 1) (ligand)
chain: QGPLSSQSQVCCFAYIARPLPRAHIKEYFYTSGKCSNPAVVFVTRKNRQVCANPEKKWVREYINSLEMS

target: CCR5 (UniProt P51681); experiment: cell-based or functional assay

Row | Binder | CCR5 sequestration (%) (% of control surface CCR5) | CCR5 signalling (%) (% of Emax of PSC-RANTES) | anti-HIV potency (IC50, nM) by cell fusion assay [nM] | anti-HIV potency (IC50, nM) by viral replication assay [nM]
1 | B1 | 3 | 4.6 | 0.02 | 0.38
2 | B2 | 3 | 1.4 | 0.02 | 289
3 | B3 | 4 | 4.1 | 0.01 | –
4 | B4 | 6 | 3.6 | 0.02 | –
5 | B5 | 0 | 0.2 | 0.03 | –
6 | B6 | 5 | 1.7 | 0.1 | –
7 | B7 | 72 | 97.6 | 0.4 | –
8 | B8 | 3 | 0.3 | 0.1 | –
9 | B9 | 78 | 96.9 | 0.44 | –
10 | B10 | 5 | 4.9 | 0.05 | –
11 | B11 | 11 | 7.6 | 0.02 | –
12 | B12 | 6 | 0 | 0.11 | –
13 | B13 | 77 | 97.2 | 0.74 | –
14 | B14 | 60 | 68.5 | 0.02 | –
15 | B15 | 16 | 5.1 | 0.02 | –
16 | B16 | 0 | 0.2 | 0.16 | –

Row | Binder | CCR5 sequestration (%) (% of control surface CCR5) | CCR5 signalling (%) (% of Emax of PSC-RANTES) | anti-HIV potency (IC50, nM) by cell fusion assay [nM] | anti-HIV potency (IC50, nM) by viral replication assay [nM]
17 | B17 | 15 | 7.5 | 0.15 | –
18 | B18 | 33 | 7.3 | 0.07 | –
19 | B19 | 7 | 5.1 | 0.05 | –
20 | B20 | 12 | 2.1 | 0.06 | –
21 | B21 | 5 | 0.7 | 0.09 | –
22 | B22 | 12 | 5 | 0.02 | –
23 | B23 | 62 | 77.4 | 0.02 | –
24 | B24 | 9 | 0 | 0.12 | –
25 | B25 | 18 | 4.9 | 0.16 | –
26 | B26 | 8 | 5.1 | 0.03 | –
27 | B27 | 5 | 6 | 0.03 | –
28 | B28 | 11 | 8.3 | 0.02 | –
29 | B29 | 4 | 0.3 | 0.29 | –
30 | B30 | 0 | 5.3 | 0.02 | 0.576
31 | B31 | 78 | 100 | 0.64 | –
